Patent US20100150834A1, “HIGH AFFINITY EPHB RECEPTOR BINDING COMPOUNDS AND METHODS OF USE THEREOF” (priority 2006, published 2010)
No end group written: not given here.

Assays:
EphB1 = assay: EphB receptor specificity (% binding), Table 1; settings: binding to EphB1
EphB6 = target: T1, EphB6 (Homo sapiens, UniProt O15197); assay: EphB receptor specificity (% binding), Table 1; settings: binding to EphB6
T1 sequence (O15197 32-1021): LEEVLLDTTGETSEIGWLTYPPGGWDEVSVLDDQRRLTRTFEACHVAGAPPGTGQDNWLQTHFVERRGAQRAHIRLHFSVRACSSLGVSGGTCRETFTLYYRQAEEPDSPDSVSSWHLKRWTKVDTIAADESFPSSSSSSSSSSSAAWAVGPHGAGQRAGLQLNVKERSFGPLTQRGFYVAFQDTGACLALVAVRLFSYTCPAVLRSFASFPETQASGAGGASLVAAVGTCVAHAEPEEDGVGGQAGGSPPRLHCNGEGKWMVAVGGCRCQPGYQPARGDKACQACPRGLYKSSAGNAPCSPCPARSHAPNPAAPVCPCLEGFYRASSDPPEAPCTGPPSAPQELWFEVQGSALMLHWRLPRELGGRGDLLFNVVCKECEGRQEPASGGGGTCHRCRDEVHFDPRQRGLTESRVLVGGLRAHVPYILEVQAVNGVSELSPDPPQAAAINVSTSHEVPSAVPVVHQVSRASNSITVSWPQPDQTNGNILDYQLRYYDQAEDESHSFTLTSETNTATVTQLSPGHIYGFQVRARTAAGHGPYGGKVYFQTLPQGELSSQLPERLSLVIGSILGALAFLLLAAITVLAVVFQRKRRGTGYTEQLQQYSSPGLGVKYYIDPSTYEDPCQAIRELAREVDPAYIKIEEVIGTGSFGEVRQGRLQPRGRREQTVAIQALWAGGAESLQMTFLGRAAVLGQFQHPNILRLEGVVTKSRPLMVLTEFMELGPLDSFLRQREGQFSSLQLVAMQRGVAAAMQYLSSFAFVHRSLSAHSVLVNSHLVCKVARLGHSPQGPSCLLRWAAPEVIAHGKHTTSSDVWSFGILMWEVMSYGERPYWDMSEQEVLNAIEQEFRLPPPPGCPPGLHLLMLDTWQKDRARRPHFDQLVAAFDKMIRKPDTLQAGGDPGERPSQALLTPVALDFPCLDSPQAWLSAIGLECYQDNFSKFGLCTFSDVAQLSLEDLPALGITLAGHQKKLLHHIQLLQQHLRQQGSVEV

EphB4 [1] = target: T2, EphB4 (Mus musculus, UniProt P54761); assay: EphB receptor specificity (% binding), Table 1; settings: binding to EphB4
T2 sequence (P54761 16-987): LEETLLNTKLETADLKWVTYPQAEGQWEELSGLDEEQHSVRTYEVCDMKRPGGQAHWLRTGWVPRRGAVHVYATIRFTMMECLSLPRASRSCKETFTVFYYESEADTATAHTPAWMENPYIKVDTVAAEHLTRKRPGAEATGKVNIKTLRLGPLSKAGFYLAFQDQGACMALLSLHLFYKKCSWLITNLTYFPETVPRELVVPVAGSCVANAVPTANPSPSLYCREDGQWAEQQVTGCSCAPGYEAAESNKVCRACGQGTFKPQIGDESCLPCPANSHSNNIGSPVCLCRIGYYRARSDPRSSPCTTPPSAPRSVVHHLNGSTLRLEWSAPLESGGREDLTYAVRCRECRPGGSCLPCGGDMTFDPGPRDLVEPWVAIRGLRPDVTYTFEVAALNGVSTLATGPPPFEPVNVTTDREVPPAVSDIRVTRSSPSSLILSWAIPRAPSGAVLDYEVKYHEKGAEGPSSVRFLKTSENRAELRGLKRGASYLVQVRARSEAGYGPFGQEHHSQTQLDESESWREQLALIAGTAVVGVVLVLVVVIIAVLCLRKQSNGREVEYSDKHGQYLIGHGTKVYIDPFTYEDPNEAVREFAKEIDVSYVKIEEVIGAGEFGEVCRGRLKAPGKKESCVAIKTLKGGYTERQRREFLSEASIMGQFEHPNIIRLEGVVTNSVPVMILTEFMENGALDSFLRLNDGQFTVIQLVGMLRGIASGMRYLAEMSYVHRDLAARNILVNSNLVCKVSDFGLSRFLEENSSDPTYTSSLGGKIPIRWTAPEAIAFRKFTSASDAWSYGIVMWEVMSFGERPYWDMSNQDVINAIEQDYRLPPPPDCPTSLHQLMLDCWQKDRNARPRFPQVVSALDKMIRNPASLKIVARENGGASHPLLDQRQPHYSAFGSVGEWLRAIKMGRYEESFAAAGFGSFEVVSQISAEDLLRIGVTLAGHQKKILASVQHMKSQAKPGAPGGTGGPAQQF

EphB3 = EphB3 (Homo sapiens, UniProt P54753); assay: EphB receptor specificity (% binding), Table 1; settings: binding to EphB3
EphB2 = EphB2 (Homo sapiens, UniProt P29323); assay: EphB receptor specificity (% binding), Table 1; settings: binding to EphB2
murine EphB4 ectodomain = target: T3, murine EphB4 ectodomain (Mus musculus, UniProt P54761); assay: Inhibition of murine ephrin-B2 AP binding to immobilized murine EphB4 ectodomain (Example 4)
T3 construct: Wells coated with the murine EphB4 ectodomain
T3 sequence (P54761 16-539 limits assumed): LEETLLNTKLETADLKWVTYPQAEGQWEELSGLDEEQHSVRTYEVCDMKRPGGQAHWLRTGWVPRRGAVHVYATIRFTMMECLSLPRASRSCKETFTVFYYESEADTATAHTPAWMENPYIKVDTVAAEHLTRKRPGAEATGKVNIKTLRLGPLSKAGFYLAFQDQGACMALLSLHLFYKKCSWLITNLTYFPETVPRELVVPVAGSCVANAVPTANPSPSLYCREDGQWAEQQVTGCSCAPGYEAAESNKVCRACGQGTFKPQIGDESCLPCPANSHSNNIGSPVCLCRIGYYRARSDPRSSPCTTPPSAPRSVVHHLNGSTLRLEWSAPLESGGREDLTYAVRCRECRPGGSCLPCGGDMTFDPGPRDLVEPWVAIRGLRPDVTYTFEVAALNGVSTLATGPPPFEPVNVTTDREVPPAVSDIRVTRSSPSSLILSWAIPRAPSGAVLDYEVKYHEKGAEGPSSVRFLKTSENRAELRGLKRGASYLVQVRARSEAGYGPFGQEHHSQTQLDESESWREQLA
Procedure: Wells coated with the murine EphB4 ectodomain were incubated with murine ephrin-B2 AP and different concentrations of the indicated peptides. Ephrin-B2 AP binding to the immobilized EphB4 receptor ectodomain was measured in the presence of various concentrations of the peptides and detected by measuring alkaline phosphatase activity. Ephrin-B2 AP binding in the presence of peptide was normalized to binding in the absence of peptide.

EphB4 [2] = target: T4, EphB4 (Homo sapiens, UniProt P54760); assay: EphB4 tyrosine phosphorylation in MDA-MB-231 breast cancer cells (immunoprecipitation, PTyr immunoblot); assay type: cell-based; settings: 2 μg/ml, clustered with anti-Fc antibodies, 20 minutes, MDA-MB-231 cells (FIG. 5E)
T4 construct: endogenous in cells; host or cells: MDA-MB-231 breast cancer cells
T4 sequence (P54760 16-987): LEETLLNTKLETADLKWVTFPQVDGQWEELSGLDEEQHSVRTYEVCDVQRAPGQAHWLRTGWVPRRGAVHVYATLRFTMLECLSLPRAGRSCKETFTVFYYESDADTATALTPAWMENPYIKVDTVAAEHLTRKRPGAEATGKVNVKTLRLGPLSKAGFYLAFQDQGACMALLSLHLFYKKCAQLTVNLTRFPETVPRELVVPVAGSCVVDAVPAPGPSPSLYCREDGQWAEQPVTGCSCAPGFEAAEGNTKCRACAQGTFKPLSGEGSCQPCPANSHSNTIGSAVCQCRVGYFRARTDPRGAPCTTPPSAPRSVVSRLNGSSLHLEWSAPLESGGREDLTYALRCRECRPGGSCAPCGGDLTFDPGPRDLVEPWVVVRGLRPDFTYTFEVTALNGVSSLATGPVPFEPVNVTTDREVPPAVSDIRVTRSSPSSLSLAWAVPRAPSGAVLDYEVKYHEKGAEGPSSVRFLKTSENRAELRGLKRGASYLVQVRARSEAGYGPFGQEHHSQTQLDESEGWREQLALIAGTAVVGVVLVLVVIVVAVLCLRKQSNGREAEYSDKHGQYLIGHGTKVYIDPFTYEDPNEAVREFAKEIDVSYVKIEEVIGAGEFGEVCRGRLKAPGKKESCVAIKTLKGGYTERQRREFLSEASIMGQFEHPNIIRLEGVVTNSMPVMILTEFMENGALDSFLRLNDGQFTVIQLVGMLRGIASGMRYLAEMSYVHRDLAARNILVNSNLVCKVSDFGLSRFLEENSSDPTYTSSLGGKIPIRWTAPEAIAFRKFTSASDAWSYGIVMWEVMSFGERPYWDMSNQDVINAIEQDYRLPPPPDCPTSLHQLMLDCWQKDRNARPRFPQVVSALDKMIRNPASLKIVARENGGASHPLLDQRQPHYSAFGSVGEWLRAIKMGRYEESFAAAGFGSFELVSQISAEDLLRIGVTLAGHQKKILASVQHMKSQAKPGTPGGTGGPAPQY
Procedure: EphB4 tyrosine phosphorylation was detected in EphB4 immunoprecipitates by immunoblotting with anti-phosphotyrosine antibodies (PTyr). […] Cells were also stimulated with 1 μg/ml ephrin-B2 Fc or human Fc as positive and negative controls, respectively.

[3] = Half-life of TNYL-RAW Fc in HEK293 cell culture medium; assay type: in vitro ADME; settings: purified from medium in which HEK293 cells were grown for 4 days
murine EphB4 = target: T5, murine EphB4 (Mus musculus, UniProt P54761); assay: TNYL-RAW Fc immobilized on protein A ELISA plates, binding of murine EphB4 AP; settings: purified from HEK293 cell culture supernatants (FIG. 5B)
T5 construct: purchased R&D Systems 446-B4-200
T5 sequence (P54761 16-539 limits assumed): T3 sequence (P54761 16-539 limits assumed)

EphB3, sequence (P54753 34-998): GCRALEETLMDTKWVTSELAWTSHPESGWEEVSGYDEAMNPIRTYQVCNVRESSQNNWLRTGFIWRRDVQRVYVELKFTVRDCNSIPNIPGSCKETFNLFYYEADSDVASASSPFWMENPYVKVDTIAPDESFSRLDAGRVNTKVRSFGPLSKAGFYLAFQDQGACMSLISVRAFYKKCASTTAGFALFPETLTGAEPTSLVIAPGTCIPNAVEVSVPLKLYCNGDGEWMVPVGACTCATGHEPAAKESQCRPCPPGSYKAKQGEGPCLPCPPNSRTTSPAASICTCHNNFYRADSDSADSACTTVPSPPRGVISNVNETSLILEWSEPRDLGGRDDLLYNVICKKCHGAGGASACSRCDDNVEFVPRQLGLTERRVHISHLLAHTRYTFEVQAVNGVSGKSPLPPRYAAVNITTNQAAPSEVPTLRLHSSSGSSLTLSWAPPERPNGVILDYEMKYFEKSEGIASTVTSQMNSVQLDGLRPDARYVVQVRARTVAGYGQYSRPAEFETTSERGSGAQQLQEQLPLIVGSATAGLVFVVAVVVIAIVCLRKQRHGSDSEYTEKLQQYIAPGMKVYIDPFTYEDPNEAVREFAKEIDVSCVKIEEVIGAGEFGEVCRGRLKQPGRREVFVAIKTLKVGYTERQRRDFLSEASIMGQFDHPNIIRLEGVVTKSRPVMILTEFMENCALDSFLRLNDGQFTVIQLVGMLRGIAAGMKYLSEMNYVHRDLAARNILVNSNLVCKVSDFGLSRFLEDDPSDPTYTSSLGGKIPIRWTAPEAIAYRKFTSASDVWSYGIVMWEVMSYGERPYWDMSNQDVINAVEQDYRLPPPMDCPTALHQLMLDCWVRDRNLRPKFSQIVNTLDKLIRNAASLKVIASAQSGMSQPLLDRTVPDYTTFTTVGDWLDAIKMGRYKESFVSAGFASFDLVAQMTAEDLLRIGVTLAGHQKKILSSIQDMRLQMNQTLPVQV
EphB2, sequence (P29323 19-1055): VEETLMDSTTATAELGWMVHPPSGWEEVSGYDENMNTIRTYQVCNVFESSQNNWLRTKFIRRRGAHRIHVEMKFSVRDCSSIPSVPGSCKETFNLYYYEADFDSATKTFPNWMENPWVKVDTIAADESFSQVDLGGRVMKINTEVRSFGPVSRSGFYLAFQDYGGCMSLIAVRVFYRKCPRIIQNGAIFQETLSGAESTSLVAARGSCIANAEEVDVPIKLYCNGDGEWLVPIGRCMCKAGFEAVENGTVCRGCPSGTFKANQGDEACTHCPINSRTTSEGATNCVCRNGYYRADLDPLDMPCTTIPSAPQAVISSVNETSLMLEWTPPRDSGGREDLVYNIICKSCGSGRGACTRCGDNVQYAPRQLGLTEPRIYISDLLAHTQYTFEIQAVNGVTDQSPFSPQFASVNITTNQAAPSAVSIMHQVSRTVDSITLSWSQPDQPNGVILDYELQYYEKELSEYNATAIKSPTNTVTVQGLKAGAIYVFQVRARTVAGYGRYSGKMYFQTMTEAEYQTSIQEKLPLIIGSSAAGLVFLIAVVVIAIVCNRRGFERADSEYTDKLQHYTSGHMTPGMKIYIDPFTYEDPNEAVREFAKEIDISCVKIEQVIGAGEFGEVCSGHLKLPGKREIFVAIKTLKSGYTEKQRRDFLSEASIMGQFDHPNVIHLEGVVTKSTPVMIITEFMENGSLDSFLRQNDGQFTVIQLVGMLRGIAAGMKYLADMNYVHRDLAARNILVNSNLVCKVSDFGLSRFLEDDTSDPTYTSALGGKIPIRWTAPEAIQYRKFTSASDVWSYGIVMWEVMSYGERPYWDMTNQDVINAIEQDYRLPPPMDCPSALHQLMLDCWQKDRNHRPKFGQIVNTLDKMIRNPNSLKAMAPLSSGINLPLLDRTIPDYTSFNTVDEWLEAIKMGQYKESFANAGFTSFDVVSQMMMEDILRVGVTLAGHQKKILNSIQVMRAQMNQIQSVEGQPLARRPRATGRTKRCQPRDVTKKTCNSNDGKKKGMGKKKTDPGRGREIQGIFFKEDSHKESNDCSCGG

26 (LPHGPVAAWDA; EphB4-binding peptide) [compound 26]
EphB Receptor Specificity (% Binding) B1 (EphB1): 2% | EphB Receptor Specificity (% Binding) B6 (EphB6): 4% | EphB Receptor Specificity (% Binding) B4 (EphB4 [1]): 100% | EphB Receptor Specificity (% Binding) B3 (EphB3): 2% | EphB Receptor Specificity (% Binding) B2 (EphB2): 15%

LFSPNGPIARAW [L-RAW]
IC50 (murine EphB4 ectodomain): > 10 µM

TNYL-RAW Fc fusion protein: TNYL-RAW peptide, GSGSK linker and human Fc of IgG1; two fusion proteins dimerize via the Fc domain (TNYLFSPNGPIARAWGSGSK-{human IgG1 Fc}; also: dimerizes via the Fc domain)
EphB4 tyrosine phosphorylation (EphB4 [2]): did not stimulate EphB4 tyrosine phosphorylation | half-life [3]: appears to be longer than that of the synthetic peptide without Fc | binding to EphB4 AP (murine EphB4): able to bind EphB4 AP with substantial affinity
